# In article PMC2808332, “Expanding the Substantial Interactome of NEMO Using Protein Microarrays” (PLoS ONE, 2010):
# B1: Chromosome 19 open reading frame 12 (natural protein, human, UniProt Q9NSK7-4 1-141, looked up)
# chain: MTIMVEDIMKLLCSLSGERKMKAAVKHSGKGALVTGAMAFVGGLVGGPPGLAVGGAVGGLLGAWMTSGQFKPVPQILMELPPAEQQRLFNEAAAIIRHLEWTDAVQLTALVMGSEALQQQLLAMLVNYVTKELRAEIQYDD
# notes: Chromosome 19 open reading frame 12, human; also called C19ORF12; source: insect cell/baculovirus, purified, spotted (Invitrogen Protoarray v4.0)
# B2: t-complex 10 (mouse)-like (natural protein, human, UniProt Q8TDR4 1-215, looked up)
# chain: MLAGQLEARDPKEGTHPEDPCPGAGAVMEKTAVAAEVLTEDCNTGEMPPLQQQIIRLHQELGRQKSLWADVHGKLRSHIDALREQNMELREKLRALQLQRWKARKKSAASPHAGQESHTLALEPAFGKISPLSADEETIPKYAGHKNQSATLLGQRSSSNNSAPPKPMSLKIERISSWKTPPQENRDKNLSRRRQDRRATPTGRPTPCAERRGGV
# notes: t-complex 10 (mouse)-like, human; also called TCP10L; source: insect cell/baculovirus, purified, spotted (Invitrogen Protoarray v4.0)
# B3: Nucleolar protein family A, member 2 (natural protein, human, UniProt Q9NX24 1-153, looked up)
# chain: MTKIKADPDGPEAQAEACSGERTYQELLVNQNPIAQPLASRRLTRKLYKCIKKAVKQKQIRRGVKEVQKFVNKGEKGIMVLAGDTLPIEVYCHLPVMCEDRNLPYVYIPSKTDLGAAAGSKRPTCVIMVKPHEEYQEAYDECLEEVQSLPLPL
# notes: Nucleolar protein family A, member 2, human; also called NOLA2; source: insect cell/baculovirus, purified, spotted (Invitrogen Protoarray v4.0)
# B4: DnaJ (Hsp40) homolog, subfamily C, member 8 (natural protein, human, UniProt O75937 1-253, looked up)
# chain: MAASGESGTSGGGGSTEEAFMTFYSEVKQIEKRDSVLTSKNQIERLTRPGSSYFNLNPFEVLQIDPEVTDEEIKKRFRQLSILVHPDKNQDDADRAQKAFEAVDKAYKLLLDQEQKKRALDVIQAGKEYVEHTVKERKKQLKKEGKPTIVEEDDPELFKQAVYKQTMKLFAELEIKRKEREAKEMHERKRQREEEIEAQEKAKREREWQKNFEESRDGRVDSWRNFQANTKGKKEKKNRTFLRPPKVKMEQRE
# notes: DnaJ (Hsp40) homolog, subfamily C, member 8, human; also called DNAJC8; source: insect cell/baculovirus, purified, spotted (Invitrogen Protoarray v4.0)
# B5: Hemoglobin, zeta (natural protein, human, UniProt P02008 1-142, looked up)
# chain: MSLTKTERTIIVSMWAKISTQADTIGTETLERLFLSHPQTKTYFPHFDLHPGSAQLRAHGSKVVAAVGDAVKSIDDIGGALSKLSELHAYILRVDPVNFKLLSHCLLVTLAARFPADFTAEAHAAWDKFLSVVSSVLTEKYR
# notes: Hemoglobin, zeta, human; also called HBZ; source: insect cell/baculovirus, purified, spotted (Invitrogen Protoarray v4.0)
# B6: PHD finger protein 7 (natural protein, human, UniProt Q9BWX1-1 1-381, looked up)
# chain: MKTVKEKKECQRLRKSAKTRRVTQRKPSSGPVCWLCLREPGDPEKLGEFLQKDNISVHYFCLILSSKLPQRGQSNRGFHGFLPEDIKKEAARASRKICFVCKKKGAAINCQKDQCLRNFHLPCGQERGCLSQFFGEYKSFCDKHRPTQNIQHGHVGEESCILCCEDLSQQSVENIQSPCCSQAIYHRKCIQKYAHTSAKHFFKCPQCNNRKEFPQEMLRMGIHIPDRDAAWELEPGAFSDLYQRYQHCDAPICLYEQGRDSFEDEGRWCLILCATCGSHGTHRDCSSLRSNSKKWECEECSPAAATDYIPENSGDIPCCSSTFHPEEHFCRDNTLEENPGLSWTDWPEPSLLEKPESSRGRRSYSWRSKGVRITNSCKKSK
# notes: PHD finger protein 7, human; also called PHF7; source: insect cell/baculovirus, purified, spotted (Invitrogen Protoarray v4.0)
# B7: Nucleosome assembly protein 1-like 5 (natural protein, human, UniProt Q96NT1 1-182, looked up)
# chain: MADSENQGPAEPSQAAAAAEAAAEEVMAEGGAQGGDCDSAAGDPDSAAGQMAEEPQTPAENAPKPKNDFIESLPNSVKCRVLALKKLQKRCDKIEAKFDKEFQALEKKYNDIYKPLLAKIQELTGEMEGCAWTLEGEEEEEEEYEDDEEEGEDEEEEEAAAEAAAGAKHDDAHAEMPDDAKK
# notes: Nucleosome assembly protein 1-like 5, human; also called NAP1L5; source: insect cell/baculovirus, purified, spotted (Invitrogen Protoarray v4.0)
# B8: LIM and cysteine-rich domains 1 (natural protein, human, UniProt Q9NZU5-1 1-365, looked up)
# chain: MAKVAKDLNPGVKKMSLGQLQSARGVACLGCKGTCSGFEPHSWRKICKSCKCSQEDHCLTSDLEDDRKIGRLLMDSKYSTLTARVKGGDGIRIYKRNRMIMTNPIATGKDPTFDTITYEWAPPGVTQKLGLQYMELIPKEKQPVTGTEGAFYRRRQLMHQLPIYDQDPSRCRGLLENELKLMEEFVKQYKSEALGVGEVALPGQGGLPKEEGKQQEKPEGAETTAATTNGSLSDPSKEVEYVCELCKGAAPPDSPVVYSDRAGYNKQWHPTCFVCAKCSEPLVDLIYFWKDGAPWCGRHYCESLRPRCSGCDEIIFAEDYQRVEDLAWHRKHFVCEGCEQLLSGRAYIVTKGQLLCPTCSKSKRS
# notes: LIM and cysteine-rich domains 1, human; also called LMCD1; source: insect cell/baculovirus, purified, spotted (Invitrogen Protoarray v4.0)
# B9: Adenine phosphoribosyltransferase (natural protein, human, UniProt P07741-1 1-180, looked up)
# chain: MADSELQLVEQRIRSFPDFPTPGVVFRDISPVLKDPASFRAAIGLLARHLKATHGGRIDYIAGLDSRGFLFGPSLAQELGLGCVLIRKRGKLPGPTLWASYSLEYGKAELEIQKDALEPGQRVVVVDDLLATGGTMNAACELLGRLQAEVLECVSLVELTSLKGREKLAPVPFFSLLQYE
# notes: Adenine phosphoribosyltransferase, human; also called APRT; source: insect cell/baculovirus, purified, spotted (Invitrogen Protoarray v4.0)
# B10: Vesicle-associated membrane protein 3 (cellubrevin) (natural protein, human, UniProt Q15836 1-100, looked up)
# chain: MSTGPTAATGSNRRLQQTQNQVDEVVDIMRVNVDKVLERDQKLSELDDRADALQAGASQFETSAAKLKRKYWWKNCKMWAIGITVLVIFIIIIIVWVVSS
# notes: Vesicle-associated membrane protein 3 (cellubrevin), human; also called VAMP3; source: insect cell/baculovirus, purified, spotted (Invitrogen Protoarray v4.0)
# B11: Family with sequence similarity 128, member A (natural protein, human, UniProt Q6P582 1-158, looked up)
# chain: MAAQGVGPGPGSAAPPGLEAARQKLALRRKKVLSTEEMELYELAQAAGGGIDPDVFKILVDLLKLNVAPLAVFQMLKSMCAGQRLASEPQDPAAVSLPTSSVPETRGRDKGSAALGGVLALAERSNHEGSSQRMPRQPSATRLPKGGGPGKSPTQGST
# notes: also called FAM128A; source: insect cell/baculovirus, purified, spotted (Invitrogen Protoarray v4.0)
# B12: Tumor protein, translationally-controlled 1 (natural protein, human, UniProt P13693 1-172, looked up)
# chain: MIIYRDLISHDEMFSDIYKIREIADGLCLEVEGKMVSRTEGNIDDSLIGGNASAEGPEGEGTESTVITGVDIVMNHHLQETSFTKEAYKKYIKDYMKSIKGKLEEQRPERVKPFMTGAAEQIKHILANFKNYQFFIGENMNPDGMVALLDYREDGVTPYMIFFKDGLEMEKC
# notes: Tumor protein, translationally-controlled 1, human; also called TPT1; source: insect cell/baculovirus, purified, spotted (Invitrogen Protoarray v4.0)
# Target: T1, NEMO (NF-κB essential modulator), tag-free, biotinylated (human, UniProt Q9Y6K9 1-419, biotin (in vitro biotinylation kit, biotin:NEMO molar ratio 9:1))
# T1 construct: NEMO, NF-κB essential modulator, human, 48 kDa; also called biotinylated NEMO; biotin-NEMO; source: E. coli BL21(DE3), purified (glutathione sepharose), GST removed with thrombin, biotinylated in vitro
# Assay: peptide or protein array; Invitrogen Protoarray v4.0, about 8,400 human proteins spotted on nitrocellulose-coated glass slides; 10 µg biotinylated tag-free NEMO in 120 µl probing buffer (PBS, 0.5 mM DTT, 5 mM MgCl2, 5% glycerol, 0.05% Triton X-100), 4°C, 1.5 h; bound NEMO detected with labelled streptavidin; hits Z-score > 3, hits of the biotin-GST control array subtracted
# Conditions: both partners purified
row,Binder,binding result
1,B1,binds
2,B2,binds
3,B3,binds
4,B4,binds
5,B5,binds
6,B6,binds
7,B7,binds
8,B8,binds
9,B9,binds
10,B10,binds
11,B11,binds
12,B12,binds
